In publication doi:10.1101/2020.12.31.424729 (bioRxiv, 2020):

B1: DH1047 Fab (Fab, V domains shown)
VH: QVQLVQSGAEVKKPGASVQVSCQASANTFTNHYIHWVRQAPGQGLEWMGIIYPTGGNTIYAQGFQGRVTMTRDTSLNTIYLELSSLRSEDTAVYYCARDVRVDDSWSGYDLLSGGTYFDYWGQGTLVTVSS
VL: not shown
B2: DH1041 Fab (Fab, V domains shown)
VH: EVQLVESGGGLVQPGGSLRLSCAASGVTFSSYWMSWVRQAPGKGLEWVANIRQDGSEKYSVDSVKGRFTISRDNAKNSLYLQMNSLRAEDTAVYYCARARRADNSGYYGFHFDCWGQGTLVTVSS
VL: QSVLTQPPSVSGAPGQRVTISCTGSSSNIGAGYDVHWYQQLPGTAPKLLIYGNNNRPSGVPDRFSDSKSGTSASLAITRLQAEDEADYYCQSYDSSLSGWVFGGGTKLTVL

Molecular target: SARS-CoV-2 Spike ectodomain trimer stabilized with 2 proline mutations (S-2P) (SARS-CoV-2, Wuhan-Hu-1, stabilised)
Assay: cryo-EM structure

Binder | stoichiometry N
B1 | 3 Fabs per S-2P trimer
B2 | 3 Fabs per S-2P trimer
